Test results taken from the supplement of paper PMC9112550, “Optimization of the antimicrobial peptide Bac7 by deep mutational scanning” (BMC Biology, 2022).

Test system: Escherichia coli TOP10
Assay: shrunken log2 fold change of peptide-encoding DNA abundance (4.5 h post-induction vs induction); higher = less antimicrobial activity (less host growth inhibition)
Settings: time post-induction: 4.5 h; library: site-saturation at positions 5, 18, 19, 20
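Note: peptides expressed intracellularly from a pBAD plasmid library in pooled LB shake-flask culture, induced with 0.3% L-arabinose, DNA abundance read by NGS, three biological replicates, DESeq2 with apeglm shrinkage.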

Sequence | shrunken log2 fold change
RRIRCRPPRLPRPRPRPTRWPRP | 0.284
RRIRPRPPRLPRPRPRPCGIPRP | -0.0938
RRIRARPPRLPRPRPRPWKHPRP | -0.0402
RRIRIRPPRLPRPRPRPGDPPRP | -0.0811
RRIRDRPPRLPRPRPRPAYLPRP | -0.011
RRIRGRPPRLPRPRPRPSWRPRP | 0.477
RRIRHRPPRLPRPRPRPNRDPRP | -0.0852
RRIRWRPPRLPRPRPRPLGVPRP | 0.459
RRIRIRPPRLPRPRPRPEFGPRP | 0.129
RRIRSRPPRLPRPRPRPKDNPRP | -0.232
RRIRQRPPRLPRPRPRPLYDPRP | -0.226
RRIRARPPRLPRPRPRPCWAPRP | 0.119
RRIRPRPPRLPRPRPRPGKGPRP | 0.0267
RRIRGRPPRLPRPRPRPNKPPRP | -0.035
RRIRARPPRLPRPRPRPLFGPRP | 0.235
RRIRSRPPRLPRPRPRPQRFPRP | -0.152
RRIRHRPPRLPRPRPRPSLYPRP | 0.07
RRIRCRPPRLPRPRPRPEHNPRP | -0.377
RRIRDRPPRLPRPRPRPDLMPRP | 0.043
RRIRTRPPRLPRPRPRPGFWPRP | 0.199
RRIRLRPPRLPRPRPRPTYWPRP | -0.256
RRIRRRPPRLPRPRPRPGVAPRP | 0.858

Sequence | shrunken log2 fold change
RRIRFRPPRLPRPRPRPDCAPRP | 0.0274
RRIRQRPPRLPRPRPRPNVSPRP | 0.00422
RRIRRRPPRLPRPRPRPLWKPRP | 0.115
RRIRSRPPRLPRPRPRPFVLPRP | -0.215
RRIRVRPPRLPRPRPRPQDTPRP | -0.64
RRIRYRPPRLPRPRPRPAWNPRP | -0.374
RRIRVRPPRLPRPRPRPWQYPRP | -0.0599
RRIRMRPPRLPRPRPRPMRWPRP | 0.539
RRIRWRPPRLPRPRPRPQSPPRP | 0.0211
RRIRFRPPRLPRPRPRPEQPPRP | 0.0505
RRIRFRPPRLPRPRPRPYLGPRP | -0.11
RRIRFRPPRLPRPRPRPQHEPRP | -0.25
RRIRRRPPRLPRPRPRPGMAPRP | 0.339
RRIRDRPPRLPRPRPRPFETPRP | -0.0134
RRIRTRPPRLPRPRPRPTCSPRP | 0.00373
RRIRTRPPRLPRPRPRPTWQPRP | 0.149
RRIRERPPRLPRPRPRPKTTPRP | -0.107
RRIRTRPPRLPRPRPRPNCKPRP | -0.218
RRIRWRPPRLPRPRPRPKRLPRP | 2.54
RRIRQRPPRLPRPRPRPTISPRP | -0.379
RRIRNRPPRLPRPRPRPAVHPRP | -0.0211
RRIRHRPPRLPRPRPRPELHPRP | 0.00184

Sequence | shrunken log2 fold change
RRIRMRPPRLPRPRPRPEGVPRP | 3.21
RRIRERPPRLPRPRPRPMKLPRP | -0.0902
RRIRFRPPRLPRPRPRPDRSPRP | 0.0602
RRIRHRPPRLPRPRPRPAHPPRP | 0.175
RRIRDRPPRLPRPRPRPQLYPRP | -0.162
RRIRRRPPRLPRPRPRPPRGPRP | 0.911
RRIRGRPPRLPRPRPRPSFMPRP | 0.0373
RRIRGRPPRLPRPRPRPWPCPRP | 0.373
RRIRERPPRLPRPRPRPWWQPRP | -0.0206
RRIRNRPPRLPRPRPRPIETPRP | -0.0081
RRIRHRPPRLPRPRPRPQGNPRP | -0.168
RRIRIRPPRLPRPRPRPKQCPRP | -0.178
RRIRLRPPRLPRPRPRPVNAPRP | 0.0227
RRIRYRPPRLPRPRPRPPIHPRP | -0.958
RRIRVRPPRLPRPRPRPIQSPRP | -0.177
RRIRFRPPRLPRPRPRPLDEPRP | -0.132
RRIRNRPPRLPRPRPRPELIPRP | -0.0327
RRIRQRPPRLPRPRPRPAANPRP | 0.0666
RRIRERPPRLPRPRPRPAYMPRP | -0.505
RRIRFRPPRLPRPRPRPKSQPRP | -0.0404
RRIRARPPRLPRPRPRPNCHPRP | -0.0678
RRIRVRPPRLPRPRPRPHVAPRP | -0.0516

Sequence | shrunken log2 fold change
RRIRCRPPRLPRPRPRPTFCPRP | -0.0442
RRIRMRPPRLPRPRPRPMQGPRP | 0.4
RRIRERPPRLPRPRPRPYHNPRP | -1.33
RRIRMRPPRLPRPRPRPYWPPRP | -0.311
RRIRVRPPRLPRPRPRPFSRPRP | -0.0787
RRIRFRPPRLPRPRPRPYDMPRP | -0.209
RRIRSRPPRLPRPRPRPHSFPRP | 0.176
RRIRSRPPRLPRPRPRPHARPRP | 0.0679
RRIRVRPPRLPRPRPRPSPSPRP | -0.017
RRIRQRPPRLPRPRPRPSCNPRP | -0.683
RRIRVRPPRLPRPRPRPYLLPRP | -0.357
RRIRERPPRLPRPRPRPYRQPRP | -0.264
RRIRERPPRLPRPRPRPDVKPRP | -0.213
RRIRERPPRLPRPRPRPSDIPRP | -0.0101
RRIRERPPRLPRPRPRPYTNPRP | -0.172
RRIRFRPPRLPRPRPRPKYIPRP | -0.678
RRIRVRPPRLPRPRPRPQMHPRP | -0.175
RRIRDRPPRLPRPRPRPKYDPRP | 0.0612
RRIRFRPPRLPRPRPRPNTDPRP | -0.384
RRIRCRPPRLPRPRPRPIYSPRP | -0.59
RRIRDRPPRLPRPRPRPTLRPRP | 0.129
RRIRDRPPRLPRPRPRPKTNPRP | -0.0796

Sequence | shrunken log2 fold change
RRIRHRPPRLPRPRPRPVWCPRP | -0.0641
RRIRWRPPRLPRPRPRPVPHPRP | 0.271
RRIRLRPPRLPRPRPRPTGQPRP | 0.107
RRIRVRPPRLPRPRPRPESIPRP | -0.149
RRIRCRPPRLPRPRPRPWLVPRP | -0.16
RRIRERPPRLPRPRPRPTAHPRP | 0.0481
RRIRTRPPRLPRPRPRPKPCPRP | -0.126
RRIRQRPPRLPRPRPRPETNPRP | 0.0137
RRIRIRPPRLPRPRPRPNHTPRP | -0.541
RRIRPRPPRLPRPRPRPMNHPRP | -0.11
RRIRFRPPRLPRPRPRPGQWPRP | -0.00218
RRIRQRPPRLPRPRPRPYWKPRP | 0.000139
RRIRYRPPRLPRPRPRPDTPPRP | 0.0497
RRIRERPPRLPRPRPRPDDWPRP | -0.0125
RRIRTRPPRLPRPRPRPFKMPRP | -0.184
RRIRNRPPRLPRPRPRPHFWPRP | -0.285
RRIRERPPRLPRPRPRPKNYPRP | -0.463
RRIRKRPPRLPRPRPRPVFGPRP | 0.176
RRIRYRPPRLPRPRPRPFIRPRP | -0.942
RRIRFRPPRLPRPRPRPHSFPRP | 0.00365
RRIRSRPPRLPRPRPRPSDSPRP | -0.612
